{"source": "patent US20140328851A1", "binders": {"B1": {"name": "Recombinant human CETP (cholesteryl ester transfer protein) (protein)", "chain": "CSKGTSHEAGIVCRITKPALLVLNHETAKVIQTAFQRASYPDITGEKAMMLLGQVKYGLHNIQISHLSIASSQVELVEAKSIDVSIQNVSVVFKGTLKYGYTTAWWLGIDQSIDFEIDSAIDLQINTQLTCDSGRVRTDAPDCYLSFHKLLLHLQGEREPGWIKQLFTNFISFTLKLVLKGQICKEINVISNIMADFVQTRAASILSDGDIGVDISLTGDPVITASYLESHHKGHFIYKNVSEDLPLPTFSPTLLGDSRMLYFWFSERVFHSLAKVAFQDGRLMLSLMGDEFKAVLETWGFNTNQEIFQEVVGGFPSQAQVTVHCLKMPKISCQNKGVVVNSSVMVKFLFPRPDQQHSVAYTFEEDIVTTVQASYSKKKLFLSLLDFQITPKTVSNLTESSSESVQSFLQSMITAVGIPEVMSRLEVVFTALMNSKGVSLFDIINPEIITRDGFLLLQMDFGFPEHLLVDFLQSLS"}}, "key": {"[1]": {"biological_target": "Low-density lipoprotein (LDL) particles (human) (UniProt P04114)", "assay": "negative-staining EM, HDL•CETP•LDL ternary complexes"}, "[2]": {"biological_target": "Low-density lipoprotein (LDL) particles (human) (UniProt P04114)", "assay": "negative-staining EM, count of LDL•CETP complexes without antibody"}, "[3]": {"biological_target": "High-density lipoprotein (HDL) particles (human) (UniProt P02647)", "assay": "cell-based or functional assay"}}}
{"binder": "B1", "values": [{"measurement": "percent of LDL particles connected to HDL particles by a CETP bridge", "setting": "[1]", "result": 25, "unit": "%"}, {"measurement": "percentage of binary complexes (LDL•CETP) without H300", "setting": "[2]", "result": 38, "unit": "%"}, {"measurement": "decrease of mean HDL particle size after 4 hours (NS-EM), HDL/CETP/LDL co-incubation without antibody", "setting": "[3]", "result": 25.8, "unit": "%"}]}
